Experimental data from patent publication US8258099B2, “Pin1-modulating compounds and methods of use thereof” (Max-Planck-Gesellschaft zur Foerderung der Wissenschaften …, priority 2004, dated 2012).
Square brackets hold non-standard residues; d marks the D form. Peptide text beside a SMILES is read from it. * marks the point of attachment. Biotin = O=C1N[C@H]2[C@H](CS[C@H]2CCCCC(=O)*)N1; pT = C[C@@H](OP(=O)(O)O)[C@H](N)C(=O)O; 2Nal = N[C@@H](Cc1ccc2ccccc2c1)C(=O)O; Bta = N[C@@H](Cc1csc2ccccc12)C(=O)O; Pip = O=C(O)[C@@H]1CCCCN1

Experiments:
full length hPin1 = biological target: T1, full length hPin1 (Homo sapiens, UniProt Q13526); test: Isothermal titration calorimetry (ITC), full length hPin1; format: binding
T1 construct: The protease free assay ensures reliable measurement of IC50 values for the full-length hPin1
Description: FIGS. 3A-B depicts a thermodynamic characterization of the binding of peptide 17 towards full length hPin1 by isothermal titration calorimetry (ITC). FIG. 3A depicts peaks that represent the heat evolved after injection of peptide 17 into the sample cell containing hPin1. After the 11th injection only the heat of dilution is observed. The experiment was performed at 10 C. FIG. 3B depicts integrals of the corresponding peaks of panel A are plotted against the molar ratio of peptide 17 and hPin1. The solid line represents a nonlinear least squares fit analysis of the binding heat assuming a single binding site model with the following parameters: ΔHbind=−4561±36 cal/mol, TΔSbind=5433±529 cal/mol, n=0.96 (binding stoichiometry) and KAss=5.18×10^7±7×10^6 M^−1 (association constant).
Calorimetric experiments were performed using a VP-ITC titration calorimeter (MicroCal, Inc, Northampton, Mass.) at 10° C. All solutions were degassed under vacuum prior to use. Solutions of hPin1 and hPin1 PPIase domain were dialyzed against 10 mM Hepes (pH 7.8). The protein concentration in the sample cell was adjusted to 6.5 μM using the same batch of buffer. Protein concentrations were determined as described above. The volume of the protein solution in the sample cell was 1.4 ml. The injection syringe was filled with 300 μl solution of peptide 17 (see table III) (250 μM in the same batch of buffer as used for dialyses). Each titration experiment consisted of a single 1 μl injection followed by 16 identical injections of 5 μl solution of peptide 17.
In principle, minimally four forms of a competing substrate in the presence of hPin1 have to be considered, the free cis and trans isomers together with two Michaelis complexes. This four-site exchange model of PPIase catalysis involves understanding predisposing factors of the stability of hPin1/substrate complexes, expected to be weaker, than the stability for those formed by phosphopeptides lacking substrate properties. The consequent increase in inhibitory potency could be realized by a transition state destabilizing substitution in peptide 15. Previous studies have shown that following C^α-stereocenter inversion of a substrate at the P1 position the parvulins fully retain substrate-like active site affinity for the derivatives while catalytic rate acceleration is abolished (Schiene et al., 1998). […] To optimize solute diffusion after mechanical injection of the Pin1 binding peptides into the viscous Xenopus laevis egg cytosol, the molecular weight of 1376.5 for peptide 16 was reduced to 823.8 for peptide 17. Following chain truncation peptide 17 maintained high affinity for Pin1 (Table III). To ensure domain selectivity, the binding of peptide 17 towards hPin1 was characterized using the isothermal titration calorimetry (ITC). […] The dissociation constant determined with ITC is in the same range as obtained in the protease-free PPIase assay (Table III).

hPin1 = biological target: T2, hPin1 (Homo sapiens, UniProt Q13526); test: Protease free PPIase assay, hPin1; format: biochemical; details: 25 μM, phosphoester group on threonine lacking
T2 construct: The protease free assay ensures reliable measurement of IC50 values for the full-length hPin1
Description: Protein concentrations were determined using the extinction coefficient ε280=21030 M^−1 cm^−1 for hPin1, ε280=6979 M^−1 cm^−1 for the hPin1 PPIase domain, ε280=21030 M^−1 cm^−1 for XlPin1, ε280=8250 M^−1 cm^−1 for hPar14 and ε280=8250 M^−1 cm^−1 for hCyp18. Extinction coefficients were calculated using the program ProtParam Tool at ExPASy (SIB, Switzerland). All measurements were done at 10° C. in 35 mM Hepes buffer (pH 7.8).
The determination of the kinetic constants of the cis/trans isomerization within the protease-free system was performed using fluorescence based measurements (Garcia-Echeverria et al., 1993, Zhang et al., 2002) on a Hitachi F-3010 fluorescence spectrophotometer with H-Abz-Ala-Glu-Pro-Phe-NH-Np (SEQ ID NO: 2) as substrate. The substrate stock solution was 12 mM in anhydrous trifluoroethanol/0.55 M LiCl. Measurements were initiated by addition of the substrate (final concentration 10 μM) to a pre-incubated (15 min) mixture of 8.8 nM hPin1 or 7.1 nM XlPin1 and respective inhibitory peptide of desired concentrations. The excitation wavelength was 320 nm (spectral bandwidth 3 nm) and emission was detected at 420 nm (spectral bandwidth 10 nm).
Data analysis was performed by single-exponential nonlinear regression using the SigmaPlot Scientific Graphing System Version 5.00 (Jandel Corp.). The apparent first order rate constant kobs was computed by nonlinear regression of the progress curve obtained for the respective measurement. The rate constant k0 was determined in the absence of Pin1. The first order rate constants kenz was calculated from the equation kenz=kobs−k0. IC50 and Ki values were determined by fitting the first order rate constants kenz against the concentration of the inhibitory peptide by nonlinear regression according to Schutkowski et al., 1995 or a model for tight binding inhibitors (Morrison, 1969).
The protease free assay ensures reliable measurement of IC50 values for the full-length hPin1.

[1] = biological target: T3, GST-hPin1, GST-hPin1 PPIase and GST-hPin1 WW domain (Homo sapiens, UniProt Q13526); test: Far western blot related analysis, hPin1 and its single domains; format: binding; details: 1 μM peptide 15, 50 μM nonphosphorylated derivative
T3 construct: made in house
Description: FIGS. 2A-B depict western blot experiments analyzing the binding of peptide 15 to Pin1. FIG. 2A depicts the binding preferences of the PPIase and WW domain of hPin1 regarding peptide 15. In far western blot related experiments, increasing amounts (from left to right: 1, 5, 10, 52.5, 105 pmol) of GST, GST-hPin1 or its single GST-hPin1 PPIase and GST-hPin1 WW domain were spotted onto nitrocellulose membranes followed by a blocking procedure. The membranes were then incubated with a 1 μM solution of peptide 15 or 50 μM solution of its nonphosphorylated derivative (control). Signals were detected after incubation of the nitrocellulose membranes with horseradish peroxidase-conjugated streptavidin followed by a chemiluminescent reaction using the SuperSignal® substrate. FIG. 2B depicts an analysis of the binding of peptide 15 towards different GST-hPin1 variants. […] Residual PPIase activities of GST-hPin1 and its variants were determined according to Zhou et al., 2000 and/or Yaffe et al., 1997. The PPIase activity of the GST-hPin1 variant Ser16Glu was measured in the protease free PPIase assay.
GST-hPin1 variants, GST-hPin1 PPIase and GST-hPin1 WW domain were prepared as described previously (Ranganathan et al., 1997, Zhou et al., 2000). […] Specific bound peptide 15 was detected by a chemiluminescent reaction using the SuperSignal® substrate (Pierce).

T1 sequence (Q13526 whole entry): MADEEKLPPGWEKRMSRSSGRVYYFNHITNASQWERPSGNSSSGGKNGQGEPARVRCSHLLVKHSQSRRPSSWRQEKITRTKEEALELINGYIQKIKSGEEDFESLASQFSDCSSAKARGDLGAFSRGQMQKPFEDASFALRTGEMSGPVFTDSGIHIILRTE
T2 sequence (Q13526 whole entry): as above
T3 sequence (Q13526 whole entry, the tested form may be a part): as the sequence (Q13526 whole entry) above

Compound: CC(=O)N[C@@H](Cc1ccccc1)C(=O)N[C@H](C(=O)N1CCCC[C@H]1C(=O)N[C@@H](Cc1ccc2ccccc2c1)C(=O)N[C@@H](CCC(N)=O)C(N)=O)[C@@H](C)OP(=O)(O)O [Ac-Phe-L-Thr(PO3H2)-Pip-Nal-Gln-NH2, reference compound] (Ac-F[pT][Pip][2Nal]Q-NH2)
- Kd (full length hPin1): 0.6 µM

Compound: nonphosphorylated derivative of peptide 15: peptide 15 lacking the phosphoester group on threonine, used as control (Ac-K(Biotin)AA[Bta]T[Pip][2Nal]Q-NH2; SMILES CC(=O)N[C@@H](CCCCNC(=O)CCCC[C@@H]1SC[C@@H]2NC(=O)N[C@@H]21)C(=O)N[C@@H](C)C(=O)N[C@@H](C)C(=O)N[C@@H](Cc1csc2ccccc12)C(=O)N[C@H](C(=O)N1CCCC[C@H]1C(=O)N[C@@H](Cc1ccc2ccccc2c1)C(=O)N[C@@H](CCC(N)=O)C(N)=O)[C@@H](C)O) [reference compound]
- hPin1 inhibition (hPin1): does not show any hPin1 inhibition
- binding to GST-hPin1 and its PPIase and WW domains [1]: not able to form a complex
